{"source": "IntAct's records for PubMed 29892012", "parents": {"B1": {"name": "Protein SSX5 (Homo sapiens), O60225 (parent)", "chain": "MNGDDAFVRRPRVGSQIPEKMQKAFDDIAKYFSEKEWEKMKASEKIIYVYMKRKYEAMTKLGFKATLPPFMRNKRVADFQGNDFDNDPNRGNQVEHPQMTFGRLQGIFPKITPEKPAEEGNDSKGVPEASGPQNNGKQLRPSGKLNTSEKVNKTSGPKRGKHAWTHRVRERKQLVIYEEISDPQEDDE", "partner": "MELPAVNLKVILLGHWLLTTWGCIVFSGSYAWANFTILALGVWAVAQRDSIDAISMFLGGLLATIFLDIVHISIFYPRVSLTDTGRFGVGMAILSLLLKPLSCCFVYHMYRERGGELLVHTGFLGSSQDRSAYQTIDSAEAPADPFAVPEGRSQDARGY"}, "B2": {"name": "Peripheral plasma membrane protein CASK (Homo sapiens), O14936 (parent)", "chain": "MADDDVLFEDVYELCEVIGKGPFSVVRRCINRETGQQFAVKIVDVAKFTSSPGLSTEDLKREASICHMLKHPHIVELLETYSSDGMLYMVFEFMDGADLCFEIVKRADAGFVYSEAVASHYMRQILEALRYCHDNNIIHRDVKPHCVLLASKENSAPVKLGGFGVAIQLGESGLVAGGRVGTPHFMAPEVVKREPYGKPVDVWGCGVILFILLSGCLPFYGTKERLFEGIIKGKYKMNPRQWSHISESAKDLVRRMLMLDPAERITVYEALNHPWLKERDRYAYKIHLPETVEQLRKFNARRKLKGAVLAAVSSHKFNSFYGDPPEELPDFSEDPTSSGLLAAERAVSQVLDSLEEIHALTDCSEKDLDFLHSVFQDQHLHTLLDLYDKINTKSSPQIRNPPSDAVQRAKEVLEEISCYPENNDAKELKRILTQPHFMALLQTHDVVAHEVYSDEALRVTPPPTSPYLNGDSPESANGDMDMENVTRVRLVQFQKNTDEPMGITLKMNELNHCIVARIMHGGMIHRQGTLHVGDEIREINGISVANQTVEQLQKMLREMRGSITFKIVPSYRTQSSSCERDSPSTSRQSPANGHSSTNNSVSDLPSTTQPKGRQIYVRAQFEYDPAKDDLIPCKEAGIRFRVGDIIQIISKDDHNWWQGKLENSKNGTAGLIPSPELQEWRVACIAMEKTKQEQQASCTWFGKKKKQYKDKYLAKHNAVFDQLDLVTYEEVVKLPAFKRKTLVLLGAHGVGRRHIKNTLITKHPDRFAYPIPHTTRPPKKDEENGKNYYFVSHDQMMQDISNNEYLEYGSHEDAMYGTKLETIRKIHEQGLIAILDVEPQALKVLRTAEFAPFVVFIAAPTITPGLNEDESLQRLQKESDILQRTYAHYFDLTIINNEIDETIRHLEEAVELVCTAPQWVPVSWVY", "partner": "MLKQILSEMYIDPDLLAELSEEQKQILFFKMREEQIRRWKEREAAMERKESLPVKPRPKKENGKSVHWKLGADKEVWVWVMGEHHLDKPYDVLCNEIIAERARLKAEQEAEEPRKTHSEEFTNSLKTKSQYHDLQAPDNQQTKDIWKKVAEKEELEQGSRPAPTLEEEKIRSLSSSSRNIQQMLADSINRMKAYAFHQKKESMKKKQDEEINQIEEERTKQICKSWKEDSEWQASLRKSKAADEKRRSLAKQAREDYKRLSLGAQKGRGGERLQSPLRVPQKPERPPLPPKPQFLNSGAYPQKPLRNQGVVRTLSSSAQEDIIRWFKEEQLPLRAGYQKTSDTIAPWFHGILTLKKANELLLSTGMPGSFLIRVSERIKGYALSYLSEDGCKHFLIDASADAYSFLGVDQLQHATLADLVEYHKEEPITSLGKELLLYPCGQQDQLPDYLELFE"}, "B3": {"name": "Methanethiol oxidase (Homo sapiens), Q13228 (parent)", "chain": "MATKCGNCGPGYSTPLEAMKGPREEIVYLPCIYRNTGTEAPDYLATVDVDPKSPQYCQVIHRLPMPNLKDELHHSGWNTCSSCFGDSTKSRTKLVLPSLISSRIYVVDVGSEPRAPKLHKVIEPKDIHAKCELAFLHTSHCLASGEVMISSLGDVKGNGKGGFVLLDGETFEVKGTWERPGGAAPLGYDFWYQPRHNVMISTEWAAPNVLRDGFNPADVEAGLYGSHLYVWDWQRHEIVQTLSLKDGLIPLEIRFLHNPDAAQGFVGCALSSTIQRFYKNEGGTWSVEKVIQVPPKKVKGWLLPEMPGLITDILLSLDDRFLYFSNWLHGDLRQYDISDPQRPRLTGQLFLGGSIVKGGPVQVLEDEELKSQPEPLVVKGKRVAGGPQMIQLSLDGKRLYITTSLYSAWDKQFYPDLIREGSVMLQVDVDTVKGGLKLNPNFLVDFGKEPLGPALAHELRYPGGDCSSDIWI", "partner": "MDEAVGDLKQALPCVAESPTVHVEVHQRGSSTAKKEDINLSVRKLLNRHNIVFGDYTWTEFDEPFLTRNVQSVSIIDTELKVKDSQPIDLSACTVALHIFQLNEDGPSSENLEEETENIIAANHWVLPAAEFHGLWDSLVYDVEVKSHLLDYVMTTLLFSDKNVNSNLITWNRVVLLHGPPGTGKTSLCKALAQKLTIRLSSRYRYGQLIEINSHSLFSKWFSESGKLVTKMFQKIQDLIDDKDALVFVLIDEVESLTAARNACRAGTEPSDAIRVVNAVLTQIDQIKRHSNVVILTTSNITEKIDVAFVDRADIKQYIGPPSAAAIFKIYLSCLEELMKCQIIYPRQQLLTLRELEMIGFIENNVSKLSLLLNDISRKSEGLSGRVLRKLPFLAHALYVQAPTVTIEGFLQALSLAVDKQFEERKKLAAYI"}, "B4": {"name": "RNA-binding protein 3 (Homo sapiens), P98179 (parent)", "chain": "MSSEEGKLFVGGLNFNTDEQALEDHFSSFGPISEVVVVKDRETQRSRGFGFITFTNPEHASVAMRAMNGESLDGRQIRVDHAGKSARGTRGGGFGAHGRGRSYSRGGGDQGYGSGRYYDSRPGGYGYGYGRSRDYNGRNQGGYDRYSGGNYRDNYDN", "partner": "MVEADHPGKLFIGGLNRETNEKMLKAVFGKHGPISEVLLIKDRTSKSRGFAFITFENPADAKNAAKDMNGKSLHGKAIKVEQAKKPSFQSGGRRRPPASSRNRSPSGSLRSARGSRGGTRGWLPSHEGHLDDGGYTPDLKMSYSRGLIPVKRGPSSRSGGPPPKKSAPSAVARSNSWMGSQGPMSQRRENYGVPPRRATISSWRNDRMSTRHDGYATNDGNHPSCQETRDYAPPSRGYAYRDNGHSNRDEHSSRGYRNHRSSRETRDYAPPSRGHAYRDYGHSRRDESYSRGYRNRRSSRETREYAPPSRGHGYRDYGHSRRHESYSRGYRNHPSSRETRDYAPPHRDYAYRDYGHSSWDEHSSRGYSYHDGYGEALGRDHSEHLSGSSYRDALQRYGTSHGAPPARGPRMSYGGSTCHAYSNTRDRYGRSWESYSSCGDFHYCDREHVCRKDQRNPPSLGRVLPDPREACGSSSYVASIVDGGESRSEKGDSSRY"}, "B5": {"name": "Retinoic acid receptor alpha (Homo sapiens), P10276 (parent)", "chain": "MASNSSSCPTPGGGHLNGYPVPPYAFFFPPMLGGLSPPGALTTLQHQLPVSGYSTPSPATIETQSSSSEEIVPSPPSPPPLPRIYKPCFVCQDKSSGYHYGVSACEGCKGFFRRSIQKNMVYTCHRDKNCIINKVTRNRCQYCRLQKCFEVGMSKESVRNDRNKKKKEVPKPECSESYTLTPEVGELIEKVRKAHQETFPALCQLGKYTTNNSSEQRVSLDIDLWDKFSELSTKCIIKTVEFAKQLPGFTTLTIADQITLLKAACLDILILRICTRYTPEQDTMTFSDGLTLNRTQMHNAGFGPLTDLVFAFANQLLPLEMDDAETGLLSAICLICGDRQDLEQPDRVDMLQEPLLEALKVYVRKRRPSRPHMFPKMLMKITDLRSISAKGAERVITLKMEIPGSMPPLIQEMLENSEGLDTLSGQPGGGGRDGGGLAPPPGSCSPSLSPSSNRSSPATHSP", "partner": "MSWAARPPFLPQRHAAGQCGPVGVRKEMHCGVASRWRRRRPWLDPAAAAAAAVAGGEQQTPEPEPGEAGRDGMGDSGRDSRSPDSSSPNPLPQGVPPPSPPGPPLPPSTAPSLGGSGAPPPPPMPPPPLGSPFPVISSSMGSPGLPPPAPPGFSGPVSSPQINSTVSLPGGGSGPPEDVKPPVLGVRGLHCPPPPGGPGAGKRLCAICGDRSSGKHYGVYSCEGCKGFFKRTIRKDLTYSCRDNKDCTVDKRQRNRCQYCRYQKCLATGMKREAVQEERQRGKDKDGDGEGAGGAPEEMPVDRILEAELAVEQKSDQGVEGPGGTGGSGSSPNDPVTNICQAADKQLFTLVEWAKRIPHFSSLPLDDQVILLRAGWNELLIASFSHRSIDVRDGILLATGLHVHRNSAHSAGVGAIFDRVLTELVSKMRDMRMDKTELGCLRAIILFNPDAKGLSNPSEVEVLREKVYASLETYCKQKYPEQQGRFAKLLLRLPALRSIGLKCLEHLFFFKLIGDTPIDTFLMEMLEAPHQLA"}}, "data": [{"variants_of": "B1", "settings": "with atrap_human AGTRAP", "values": [{"variant": "MNGDDAFVRRPRVGSQIPEKMQKAFDDIAKYFSEKEWEKMKASEKIIYVYMKRRYEAMTKLGFKATLPPFMRNKRVADFQGNDFDNDPNRGNQVEHPQMTFGRLQGIFPKITPEKPAEEGNDSKGVPEASGPQNNGKQLRPSGKLNTSEKVNKTSGPKRGKHAWTHRVRERKQLVIYEEISDPQEDDE", "note": "[K54R]", "effect of a mutation on the interaction": "disrupting interaction strength"}]}, {"variants_of": "B2", "settings": "with sh24a_human SH2D4A", "values": [{"variant": "G197R", "effect of a mutation on the interaction": "with no effect"}]}, {"variants_of": "B3", "settings": "with pch2_human TRIP13, Q15645", "values": [{"variant": "MATKCGNCGPGYSTPLEAMKGPREEIVYLPCIYRNTGTEAPDYLATVDVDPKSPQYCQVIHRLPMPNLKDELHHSGWNTCSSCFGDSTKSRTKLVLPSLISSRIYVVDVGSEPRAPKLHKVIEPKDIHAKCELAFLHTSHCLASGEVMISSLGDVKGNGKGGFVLLDGETFEVKGTWERPGGAAPLGYDFWYQPRHNVMISTEWAAPNVLRDGFNPADVEAGLYGSHLYVWDWQRHEIVQTLSLKDGLIPLEIRFLHNPDAAQGFVGCALSSTIQRFYKNEGGTWSVEKVIQVPPKKVKGWLLPEMPGLITDILLSLDDRFLYFSNWLHGDLRQYDISDPQRPRLTGQLFLGGSIVKGGPVQVLEDEELKSQPEPLVVKGKRVAGGPQMIQLSLDGKCLYITTSLYSAWDKQFYPDLIREGSVMLQVDVDTVKGGLKLNPNFLVDFGKEPLGPALAHELRYPGGDCSSDIWI", "note": "[R398C]", "effect of a mutation on the interaction": "with no effect"}]}, {"variants_of": "B4", "settings": "with rby1a_human RBMY1A1, P0DJD3", "values": [{"variant": "MSSEEGKLFVGGLNFNTDEQALEDHFSSFGPISEVVVVKDRETQRSRGFGFITFTNPEHASVAMRAMNGESLDGRQIRVDHAGKSARGTRGGGFGAHGRGRSYSRGGGDQGYGSGRYYDSRPGGYGYGYGRSRDYNGRNQGGYDHYSGGNYRDNYDN", "note": "[R145H]", "effect of a mutation on the interaction": "with no effect"}]}, {"variants_of": "B5", "settings": "with rxrb_human RXRB", "values": [{"variant": "MASNSSSCPTPGGGHLNGYPVPPYAFFFPPMLGGLSPPGALTTLQHQLPVSGYSTPSPATIETQSSSSEEIVPSPPSPPPLPHIYKPCFVCQDKSSGYHYGVSACEGCKGFFRRSIQKNMVYTCHRDKNCIINKVTRNRCQYCRLQKCFEVGMSKESVRNDRNKKKKEVPKPECSESYTLTPEVGELIEKVRKAHQETFPALCQLGKYTTNNSSEQRVSLDIDLWDKFSELSTKCIIKTVEFAKQLPGFTTLTIADQITLLKAACLDILILRICTRYTPEQDTMTFSDGLTLNRTQMHNAGFGPLTDLVFAFANQLLPLEMDDAETGLLSAICLICGDRQDLEQPDRVDMLQEPLLEALKVYVRKRRPSRPHMFPKMLMKITDLRSISAKGAERVITLKMEIPGSMPPLIQEMLENSEGLDTLSGQPGGGGRDGGGLAPPPGSCSPSLSPSSNRSSPATHSP", "note": "[R83H]", "effect of a mutation on the interaction": "with no effect"}, {"variant": "MASNSSSCPTPGGGHLNGYPVPPYAFFFPPMLGGLSPPGALTTLQHQLPVSGYSTPSPATIETQSSSSEEIVPSPPSPPPLPRIYKPCFVCQDKSSGYHYGVSACEGCKGFFRRSIQKNMVYTCHRDKNCIINKVTRNRCQYCRLQKCFEVGMSKESVRNDRNKKKKEVPKPECSESYTLTPEVGELIEKVRKAHQETFPALCQLGKYTTNNSSEQRVSLDIDLWDKFSELSTKCIIKTVEFAKQLPGFTTLTIADQITLLKAACLDILILRICTRYTPEQDTMTFSDGLTLNRTQMHNAGFGPLTDLVFAFANQLLPLEMDDAETGLLSAICLICGDRQDLEQPDRVDMLQEPLLEALKVYVRKRRPSRPHMFLKMLMKITDLRSISAKGAERVITLKMEIPGSMPPLIQEMLENSEGLDTLSGQPGGGGRDGGGLAPPPGSCSPSLSPSSNRSSPATHSP", "note": "[P375L]", "effect of a mutation on the interaction": "disrupting interaction strength"}]}]}
